Data from article PMC12435366, “Maleic anhydride derived diphosphines: adaptable chelators for receptor-targeted ^99mTc, ^64Cu and ^188Re radiotracers” (Chemical Science, 2025).

Test system: PSMA-expressing tumours
Assay: Ex vivo biodistribution across both mouse models (DU145-PSMA+ and LNCaP xenografts)
Type: in vivo, mice
Conditions: both tracers, 2 h post-injection
Description: The biodistribution of [^99mTcO2(DP^An-PSMAt)2]^+ and [^99mTcO2(DP^MEP-PSMAt)2]^+ was studied using SPECT/CT imaging and ex vivo biodistribution methods. In these studies, [^99mTcO2(DP^An-PSMAt)2]^+ and [^99mTcO2(DP^MEP-PSMAt)2]^+ were used directly from kit-based formulations, without further purification, mimicking procedures used in clinical radiopharmacies and nuclear medicine departments. Mice were injected with [^99mTcO2(DP^An-PSMAt)2]^+ or [^99mTcO2(DP^MEP-PSMAt)2]^+ (4–5 MBq), containing 3 μg (2.6 nmol) of DP^An-PSMAt or 3.5 μg (2.6 nmol) of (DP^MEP-PSMAt) via the tail-vein, and culled 2 h post-injection, followed by dissection, organ/tissue weighing and counting. […]
For all animals, significant concentrations of ^99mTc radioactivity (2–5 %ID g^−1) were measured in PSMA-expressing tumours 2 h post-injection, and although ^99mTc tumour concentrations were consistently higher for animals administered [^99mTcO2(DP^An-PSMAt)2]^+, there were no statistically significant differences between [^99mTcO2(DP^An-PSMAt)2]^+ and [^99mTcO2(DP^MEP-PSMAt)2]^+ in either mouse model. For both tracers, there were also significant concentrations of ^99mTc radioactivity in the spleen, which is known to express low levels of PSMA and accumulate PSMA-targeted radiotracers,[9,10] and the liver. […]

Compound | ^99mTc radioactivity concentration in kidneys
COCCOc1ccc(P(/C(C(=O)O)=C(/C(=O)NCCOCCOCCOCCOCCC(=O)NCCCC[C@H](NC(=O)N[C@@H](CCC(=O)O)C(=O)O)C(=O)O)P(c2ccc(OCCOC)cc2)c2ccc(OCCOC)cc2)c2ccc(OCCOC)cc2)cc1 [[^99mTcO2(DP^MEP-PSMAt)2]^+, metal not drawn] | 40–90 %ID g^−1
COc1ccc(P(/C(C(=O)O)=C(/C(=O)NCCOCCOCCOCCOCCC(=O)NCCCC[C@H](NC(=O)N[C@@H](CCC(=O)O)C(=O)O)C(=O)O)P(c2ccc(OC)cc2)c2ccc(OC)cc2)c2ccc(OC)cc2)cc1 [[^99mTcO2(DP^An-PSMAt)2]^+, metal not drawn] | 40–90 %ID g^−1
